B1: cMet AA5 Ig (antibody, human IgG1, kappa, V domains shown)
VH: QVQLQQSGPELVRPGASVKMSCRASGYTFTSYWLHWVKQRPGQGLEWIGMIDPSNSDTRFNPNFKDKATLNVDRSSNTAYMLLSSLTSADSAVYYCATYGSYVSPLDYWGQGTSVTVSS
VL: DFMMSQSPSSLTVSVGEKVTVSCKSSQSLLYTSSQKNYLAWYQQKPGQSPKLLIYWASTRESGVPDRFTGSGSGTDFTLTITSVKADDLAVYYCQQYYAYPWTFGGGTKLELKR
notes: the intended AA5 mutation is not visible; also called Anti-cMet-AA5
B2: cMet Ig (anti-cMet antibody, 5D5 variable domains on human Cg1/Ck) (antibody, human IgG1, kappa)
heavy: not shown
light: DFMMSQSPSSLTVSVGEKVTVSCKSSQSLLYTSSQKNYLAWYQQKPGQSPKLLIYWASTRESGVPDRFTGSGSGTDFTLTITSVKADDLAVYYCQQYYAYPWTFGGGTKLELKRTVAAPSVFIFPPSDEQLKSGTASVVCLLNNFYPREAKVQWKVDNALQSGNSQESVTEQDSKDSTYSLSSTLTLSKADYEKHKVYACEVTHQGLSSPVTKSFNRGEC
notes: VH/VL cloned from hybridoma HB-11895 (5D5.11.6) into pHybE-hCg1,z,non-a and pHybE-hCk; also called cMet mAb; parental cMet mAb
B3: cMet AA4 Ig (antibody, human IgG1, kappa, V domains shown)
VH: B1 VH with V103A, S104A
VL: B1 VL
notes: HC CDR3 alanine-scanning mutant paired with the common cMet LC; also called Anti-cMet-AA4
B4: cMet AA1 Ig (antibody, human IgG1, kappa, V domains shown)
VH: B1 VH with T98A
VL: B1 VL
notes: HC CDR3 alanine-scanning mutant paired with the common cMet LC; also called Anti-cMet-AA1
B5: DB001 DVD-Ig (CD3 and EGFR) (bispecific antibody)
VH: QVQLQESGPGLVKPSQTLSLTCTVSGYSISSDFAWNWIRQPPGKGLEWMGYISYSGNTRYQPSLKSRITISRDTSKNQFFLKLNSVTAADTATYYCVTAGRGFPYWGQGTLVTVSSASTKGPEVQLVESGGGLVQPGGSLRLSCAASGFTFSTYAMNWVRQAPGKGLEWVGRIRSKYNNYATYYADSVKDRFTISRDDSKNTAYLQMNSLRAEDTAVYYCTRHGNFGNSYVSWFAYWGQGTLVTVSS
VL: DIQMTQSPSSMSVSVGDRVTITCHSSQDINSNIGWLQQKPGKSFKGLIYHGTNLDDGVPSRFSGSGSGTDYTLTISSLQPEDFATYYCVQYAQFPWTFGGGTKLEIKTVAAPSVFIFPPDAQVTQSPSSLSASVGDRVTITCRSSTGAVTTSNYANWVQEKPGKLFKGLIGGTNKRAPGVPSRFSGSGSGTDATLTISSLQPEDFATYFCALWYSNLWVFGGGTKVEIKR
notes: also called parental DVD-Ig
B6: cMet mAb KH (cMet mAb with knobs-into-holes mutations) (antibody, human IgG1, kappa)
heavy 1: not shown
heavy 2: not shown
light: B2 light
B7: cMet AA6 HK MBody (antibody, human IgG1, kappa)
heavy 1: not shown
heavy 2: not shown
light: B2 light
B8: cMet AA2 HK MBody (antibody, human IgG1, kappa)
heavy 1: not shown
heavy 2: not shown
light: B2 light
B9: cMet AA3 KH MBody (antibody, human IgG1, kappa)
heavy 1: not shown
heavy 2: not shown
light: B2 light
B10: cMet AA3 HK MBody (antibody, human IgG1, kappa)
heavy 1: not shown
heavy 2: not shown
light: B2 light
B11: cMet AA6 KH MBody (antibody, human IgG1, kappa)
heavy 1: not shown
heavy 2: not shown
light: B2 light
B12: Anti-CD40 LA (antibody, human IgG1, kappa, V domains shown)
VH: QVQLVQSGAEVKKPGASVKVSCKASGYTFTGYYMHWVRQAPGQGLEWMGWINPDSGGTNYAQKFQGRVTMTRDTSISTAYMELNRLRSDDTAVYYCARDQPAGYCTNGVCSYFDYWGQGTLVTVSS
VL: DIQMTQSPSSVSASVGDRVTITCRASQGIYSWLAWYQQKPGKAPNLLIYTASTLQSGVPSRFSGSGSGTDFTLTISSLQPEDFATYYCQQANIFPLTFGGGTKVEIKR
B13: Anti-CD40 NA (antibody, human IgG1, kappa, V domains shown)
VH: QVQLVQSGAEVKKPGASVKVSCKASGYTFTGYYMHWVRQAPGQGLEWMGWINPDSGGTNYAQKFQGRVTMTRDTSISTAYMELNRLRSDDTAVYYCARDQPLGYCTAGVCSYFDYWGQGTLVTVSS
VL: B12 VL
B14: Anti-CD40 VA (antibody, human IgG1, kappa, V domains shown)
VH: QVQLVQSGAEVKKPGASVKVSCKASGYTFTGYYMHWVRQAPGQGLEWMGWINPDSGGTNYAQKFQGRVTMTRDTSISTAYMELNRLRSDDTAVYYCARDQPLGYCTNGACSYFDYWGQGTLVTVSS
VL: B12 VL
B15: Anti-CD40 YNV (antibody, human IgG1, kappa, V domains shown)
VH: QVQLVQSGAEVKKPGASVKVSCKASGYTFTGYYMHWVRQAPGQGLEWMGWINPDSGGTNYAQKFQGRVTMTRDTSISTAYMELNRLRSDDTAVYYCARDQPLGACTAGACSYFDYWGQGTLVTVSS
VL: B12 VL
B16: Anti-CD40 LYNV (antibody, human IgG1, kappa, V domains shown)
VH: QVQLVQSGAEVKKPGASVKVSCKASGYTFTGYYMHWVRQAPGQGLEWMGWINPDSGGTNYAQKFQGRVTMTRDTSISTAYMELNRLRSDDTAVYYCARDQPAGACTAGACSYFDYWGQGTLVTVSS
VL: B12 VL
B17: Anti-CD40 YA (antibody, human IgG1, kappa, V domains shown)
VH: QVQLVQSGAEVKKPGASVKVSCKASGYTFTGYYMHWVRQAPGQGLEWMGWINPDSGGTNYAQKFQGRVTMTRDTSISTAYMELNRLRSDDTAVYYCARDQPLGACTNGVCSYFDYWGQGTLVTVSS
VL: B12 VL
B18: Anti-human c-Met antibody 5D5 (antibody, V domains shown)
VH: B1 VH
VL: B1 VL
notes: VH and VL are those cloned from hybridoma HB-11895 (5D5.11.6); also called bivalent antibody 5D5
B19: 5D5 Fab (Fab, V domains shown)
VH: B1 VH
VL: B1 VL
B20: MetMAb1 (antibody, V domains shown)
VH: EVQLVESGGGLVQPGGSLRLSCAASGYTFTSYWLHWVRQAPGKGLEWVGMIDPSNSDTRFNPNFKDRFTISADTSKNTAYLQMNSLRAEDTAVYYCATYRSYVTPLDYWGQGTLVTVSS
VL: DIQMTQSPSSLSASVGDRVTITCKSSQSLLYTSSQKNYLAWYQQKPGKAPKLLIYWASTRESGVPSRFSGSGSGTDFTLTISSLQPEDFATYYCQQYYAYPWTFGQGTKVEIKR
notes: also called monovalent c-Met antibody MetMAb1
B21: anti-cMet h5D5 Fab-body (antibody, human IgG1, kappa, V domains shown)
VH: B20 VH
VL: B20 VL
notes: Monovalent Fab-Fc heterodimer: LFc chain (VL-CL-linker-Fc knob) and HFc chain (VH-CH1-linker-Fc hole)

Numbering of substitutions follows the chain as printed. Bounds are passed on as bounds.

T1 sequence (P08581 25-932 limits assumed): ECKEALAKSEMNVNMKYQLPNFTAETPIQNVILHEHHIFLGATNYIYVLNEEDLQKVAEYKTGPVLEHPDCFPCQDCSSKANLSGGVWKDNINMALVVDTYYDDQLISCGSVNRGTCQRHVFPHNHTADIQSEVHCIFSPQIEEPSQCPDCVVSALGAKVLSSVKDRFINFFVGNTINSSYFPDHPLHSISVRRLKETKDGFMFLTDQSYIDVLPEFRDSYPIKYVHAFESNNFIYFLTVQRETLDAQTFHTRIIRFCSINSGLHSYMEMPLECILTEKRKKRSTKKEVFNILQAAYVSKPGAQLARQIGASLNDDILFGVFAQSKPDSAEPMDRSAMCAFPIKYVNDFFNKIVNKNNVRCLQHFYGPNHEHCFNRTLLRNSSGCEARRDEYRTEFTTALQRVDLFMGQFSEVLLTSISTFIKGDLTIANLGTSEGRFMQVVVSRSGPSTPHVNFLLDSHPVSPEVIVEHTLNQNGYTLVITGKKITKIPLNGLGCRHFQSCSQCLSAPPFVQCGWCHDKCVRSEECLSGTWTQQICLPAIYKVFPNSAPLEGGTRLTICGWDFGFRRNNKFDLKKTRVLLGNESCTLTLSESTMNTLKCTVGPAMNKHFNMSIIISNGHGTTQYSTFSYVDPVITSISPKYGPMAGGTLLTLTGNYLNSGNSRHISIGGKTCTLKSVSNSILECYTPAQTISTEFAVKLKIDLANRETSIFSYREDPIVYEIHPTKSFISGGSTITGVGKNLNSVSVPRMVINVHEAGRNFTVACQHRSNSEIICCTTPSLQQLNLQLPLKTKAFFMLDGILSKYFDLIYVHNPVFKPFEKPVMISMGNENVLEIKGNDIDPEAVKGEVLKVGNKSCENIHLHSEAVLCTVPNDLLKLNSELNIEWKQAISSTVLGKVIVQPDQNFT
T4 sequence (P55899 24-297, chain 1 of 2): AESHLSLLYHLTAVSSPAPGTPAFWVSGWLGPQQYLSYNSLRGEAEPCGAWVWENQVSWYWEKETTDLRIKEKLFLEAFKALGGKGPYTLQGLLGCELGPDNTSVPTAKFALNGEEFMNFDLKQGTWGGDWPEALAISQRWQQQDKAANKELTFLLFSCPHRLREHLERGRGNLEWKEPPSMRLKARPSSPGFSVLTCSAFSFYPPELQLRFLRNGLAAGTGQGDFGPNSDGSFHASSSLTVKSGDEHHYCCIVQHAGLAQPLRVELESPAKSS
T4 sequence (P61769 21-119, chain 2 of 2, further chain): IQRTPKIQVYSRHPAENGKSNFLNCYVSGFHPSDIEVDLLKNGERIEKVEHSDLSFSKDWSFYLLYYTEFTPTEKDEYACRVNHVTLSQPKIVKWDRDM

One assay concerns the target T1, biotin-labeled cMet (UniProt P08581 25-932, limits assumed, biotin label (site not stated)).
T1 construct: also called cMet antigen
Put plainly: ELISA: antibody captured on anti-IgG Fc coat, bound biotin-labeled cMet detected with streptavidin-HRP. In general terms: ELISA stands for enzyme-linked immunosorbent assay.
Broadly, the EC50 is the concentration that produces a half-maximal response. B1 came in with an EC50 of 1.81 nM.
The same measure, in the same setting: the same measure for B2: 0.3 nM; for B3: 1.24 nM.
Same read-out and setting: for B4 the value was 7.25 nM.

In a further assay the target is T2, CD3 on Jurkat cells (UniProt P07766 23-207).
T2 construct: whole, on cells; CD3 is a multi-chain complex; also called CD3 antigen
The assay can be described thus: flow cytometry on Jurkat cells, Alexa Fluor 488 anti-human IgG Fc. On the technique in general: A flow cytometer gives signals particle by particle.
Procedure: 0.5×10⁶ of Jurkat or NCI-N87 cells were washed with FACS buffer (1% BSA/PBS) and resuspended in 50 ul of FACS buffer. mAbs or Fab-bodies were prepared in 50 ul of FACS buffer and mixed with cells and incubated at 4° C. for 1 hr.
The molecule B5 showed an EC50 of 74 nM.

In the next assay the target is T3, rhcMetECD (cMet extracellular domain) (human, UniProt P08581 25-932).
T3 construct: extracellular domain; also called cMet antigen
T3 sequence (P08581 25-932): as the sequence (P08581 25-932 limits assumed) above
The assay can be described thus: SPR (Biacore 3000), apparent stoichiometry at saturating rhcMetECD. For orientation: SPR reads the build-up and loss of mass on a sensor chip optically.
Source text: Unreacted moieties on the biosensor surface were blocked with ethanolamine. Modified carboxymethyl dextran surface in flowcell 2 and 4 was used as a reaction surface. Unmodified carboxymethyl dextran without goat anti-human IgG in flow cell 1 and 3 was used as the reference surface. For kinetic analysis, rate equations derived from the 1:1 Langmuir binding model were fitted simultaneously to association and dissociation phases of all ten injections (using global fit analysis) using the Bioevaluation 4.0.1 software. Purified MBody samples were diluted in HEPES-buffered saline for capture across goat anti-human IgG Fc specific reaction surfaces and injected over reaction matrices at a flow rate of 5 ml/min. […] The equilibrium dissociation constant (M) of the reaction between MBody and rhcMetECD was then calculated from the kinetic rate constants by the following formula: KD=koff/kon. Aliquots of rhcMetECD samples were also simultaneously injected over a blank reference and reaction CM surface to record and subtract any nonspecific binding background to eliminate the majority of the refractive index change and injection noise. […] The apparent stoichiometry of the captured MBody-rhcMetECD complex was calculated under saturating binding conditions (steady-state equilibrium) using the following formula:
Turning to B2, the Stoichiometry stood at 1.51.
On the same count and under the same terms, for B6 the value was 1.53.

The next assay has as its target T4, Neonatal Fc receptor (FcRn) on CHO-FcRnGPI cells.
T4 construct: whole, on cells; nothing more is said; also called FcRn receptors
Put plainly: flow cytometry on CHO-FcRnGPI cells, pH 6.4.
Procedure: CHO-FcRnGPI cells (Stable FcRn receptor expressor) and CHO-pBudl l cells (non-FcRn expressor) were aliquotted into 96-well plates at 1×10⁵ cells/well. Cells were resuspended in 150 μl FACS buffer. […] 30 μl of diluted antibody or half-Ig binding protein was added to each well and incubated on ice for 1 hour. Following 2 washes with FACS buffer, 50 μl of secondary antibody R-phycoerythrin-conjugated AfiniPure F(ab′)2 Fragment goat anti-human IgG (Jackson ImmunoResearch, West Grove, Pa.) diluted in FACS buffer pH 6.4 or pH7.4 was added. The mixture was incubated for 30 min on ice. The cells were resuspended in 100 μl PBS with 1% FBS (Invitrogen, Carlsbad, Calif.) and 2 μg/ml propidium iodide (Invitrogen, Carlsbad, Calif.) of the corresponding pH. Final FACS data were acquired on a FACScan (Becton Dickinson, Franklin Lakes, N.J.).
Regarding B2, a half-maximal effect (EC50) was put at 53.3 µg/mL.
The same measure, in the same setting: for B6 the value was 44.4 µg/mL; for B7, 47.1 µg/mL.
The same measure, in the same setting: the same measure for B8: 31.5 µg/mL.
In turn, B9 yielded an EC50 of 38 µg/mL.
On the same count and under the same terms, the same measure for B10: 34.8 µg/mL.
The molecule B11 came in with an EC50 of 51.1 µg/mL.

In the next assay the target is T5, c-Met on tumor cell lines (A549, IM-95, SNU-5, SNU-620) (UniProt P08581 25-1390, limits assumed). Put plainly: cell-based or functional assay.
T5 sequence (P08581 25-1390 limits assumed): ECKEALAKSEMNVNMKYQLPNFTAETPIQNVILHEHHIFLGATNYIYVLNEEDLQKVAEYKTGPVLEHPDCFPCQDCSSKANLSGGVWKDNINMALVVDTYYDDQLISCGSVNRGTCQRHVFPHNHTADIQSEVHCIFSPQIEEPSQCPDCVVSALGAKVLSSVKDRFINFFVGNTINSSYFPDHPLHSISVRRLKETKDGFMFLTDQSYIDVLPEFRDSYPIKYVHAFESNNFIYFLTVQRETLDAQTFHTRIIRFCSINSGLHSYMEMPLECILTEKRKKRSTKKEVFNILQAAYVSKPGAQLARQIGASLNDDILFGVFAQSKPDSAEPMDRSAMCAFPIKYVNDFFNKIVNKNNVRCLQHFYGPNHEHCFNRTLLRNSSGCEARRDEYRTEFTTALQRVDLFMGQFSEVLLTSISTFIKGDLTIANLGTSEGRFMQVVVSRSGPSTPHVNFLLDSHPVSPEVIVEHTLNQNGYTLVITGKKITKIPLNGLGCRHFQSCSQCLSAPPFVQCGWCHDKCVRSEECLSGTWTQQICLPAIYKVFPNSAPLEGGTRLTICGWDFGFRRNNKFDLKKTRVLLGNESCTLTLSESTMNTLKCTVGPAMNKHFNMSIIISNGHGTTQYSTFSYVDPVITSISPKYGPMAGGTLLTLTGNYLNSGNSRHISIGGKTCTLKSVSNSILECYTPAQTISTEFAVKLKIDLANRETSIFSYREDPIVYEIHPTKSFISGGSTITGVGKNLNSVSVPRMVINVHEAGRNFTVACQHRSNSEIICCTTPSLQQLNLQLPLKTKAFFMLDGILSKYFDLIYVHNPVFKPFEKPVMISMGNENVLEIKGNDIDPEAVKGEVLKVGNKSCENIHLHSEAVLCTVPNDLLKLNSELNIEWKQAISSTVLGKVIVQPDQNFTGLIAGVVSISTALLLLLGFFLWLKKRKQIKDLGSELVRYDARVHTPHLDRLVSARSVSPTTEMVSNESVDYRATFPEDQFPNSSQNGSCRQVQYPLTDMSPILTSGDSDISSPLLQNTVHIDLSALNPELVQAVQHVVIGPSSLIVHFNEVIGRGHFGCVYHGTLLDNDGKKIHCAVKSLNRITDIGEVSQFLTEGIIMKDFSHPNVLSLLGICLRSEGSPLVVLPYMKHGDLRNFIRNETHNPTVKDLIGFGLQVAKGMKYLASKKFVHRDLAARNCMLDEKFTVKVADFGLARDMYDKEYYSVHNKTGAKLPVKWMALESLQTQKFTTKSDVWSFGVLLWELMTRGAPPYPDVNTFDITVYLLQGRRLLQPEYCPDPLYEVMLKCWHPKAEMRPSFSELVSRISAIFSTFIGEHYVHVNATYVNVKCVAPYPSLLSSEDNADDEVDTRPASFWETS
For B2, the “Inhibition of IM95 Proliferation, EC50” value was 0.17 µg/mL.
With B7, the “Inhibition of IM95 Proliferation, EC50” value worked out at 2.73 µg/mL.
Same read-out and setting: the same measure for B8: 0.23 µg/mL; for B9: 2.14 µg/mL.
For the molecule B10, the “Inhibition of IM95 Proliferation, EC50” value is 1.6 µg/mL.
The same measure, in the same setting: for B11 the value was 1.86 µg/mL.

In a further assay the target is EGFR on EGFR-expressing target cells (UniProt P00533 25-1210, limits assumed). The assay can be described thus: cell-based or functional assay.
Turning to B5, the “Redirected Cytotoxicity (rCTL), EC50” value came to 1.5 nM.

The target in a further assay is T6, CD40 on CD40-overexpressing HEK 293 cells (UniProt P25942 21-277, limits assumed).
T6 construct: whole, on cells
T6 sequence (P25942 21-277 limits assumed): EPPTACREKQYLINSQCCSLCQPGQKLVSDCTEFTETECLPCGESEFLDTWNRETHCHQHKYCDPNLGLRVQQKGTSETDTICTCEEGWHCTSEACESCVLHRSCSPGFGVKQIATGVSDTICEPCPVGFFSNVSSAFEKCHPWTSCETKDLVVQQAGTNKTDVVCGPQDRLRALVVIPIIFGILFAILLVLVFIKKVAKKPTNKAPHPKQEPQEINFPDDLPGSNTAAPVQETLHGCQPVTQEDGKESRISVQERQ
The assay can be described thus: flow cytometry on CD40-overexpressing HEK 293 cells, APC anti-human Fc.
Procedure: First, the CD40-overexpressing HEK 293 cells were stained with hIgG1 or testing material at a range of 0.01 μg/ml to 10 μg/ml. Followed by 30 min incubation on ice with an APC-conjugated anti-human Fc antibody. Cells then are washed twice and resuspended in PBS/FBS. Fluorescence was measured using a Becton Dickinson FACSCalibur (Becton Dickinson, San Jose, Calif.).
The binding of proteins were examined by FACS.
As to B12, the EC50 was found to be 0.189 µg/mL.
The same measure, in the same setting: for B13 the value was 2.12 µg/mL.
Molecule B14 gave an EC50 of 0.125 µg/mL.
Turning to B15, the binding result is reported as “no binding (tested: 0.01 µg/ml to 10 µg/ml)”.
The same measure, in the same setting: the same measure for B16: “no binding (tested: 0.01 µg/ml to 10 µg/ml)”.
B17 yielded a concentration giving a half-maximal response (EC50) of 0.095 µg/mL.

The next assay addresses T5, c-Met on tumor cell lines (A549, IM-95, …). Put plainly: cell-based or functional assay. The source holds these as a separate data set.
Consider B18, for which the “Inhibition of HGF-induced phospho-c-Met IC50 (A549 cells)” value (shortened to “Inhibition … (A549 cells)”) was determined as 1.4 nM, the “Inhibition of IM-95 proliferation (HGF-dependent) IC50” value (from here on “Inhibition of IM-95 proliferation”) turned out to be 5.8 nM and the “Inhibition of SNU-5 proliferation (constitutively active c-Met) IC50” value (from here on “Inhibition of SNU-5 proliferation”) is over 600 nM.
On to B19, for which the “Inhibition … (A549 cells)” value came to 5.9 nM, the “Inhibition of IM-95 proliferation” value came out at 55.7 nM, the “Inhibition of SNU-5 proliferation” value is over 600 nM and the “Inhibition/induction of SNU-620 proliferation (constitutively active c-Met but still HGF-inducible) IC50” value (“Inhibition/induction” below) was over 600 nM.
Turning to B20, the “Inhibition … (A549 cells)” value came to 3.8 nM, the “Inhibition of IM-95 proliferation” value was 17.4 nM, the “Inhibition of SNU-5 proliferation” value is over 600 nM and the “Inhibition/induction” value is over 600 nM.
Turning to B21, the “Inhibition … (A549 cells)” value came to 2.6 nM, the “Inhibition of IM-95 proliferation” value stood at 12.8 nM, the “Inhibition of SNU-5 proliferation” value amounted to 4.1 nM and the “Inhibition/induction” value is over 600 nM.

Another assay deals with T1, biotin-labeled cMet. The assay can be described thus: ELISA: antibody captured on anti-IgG Fc coat, bound biotin-labeled cMet detected with streptavidin-HRP. The source holds these as a separate data set.
Procedure: (§1) cMet binding ELISA was performed to characterize the antigen binding property of cMet antibodies. 96-well ELISA plates were coated with 100 μl/well 5 μg/ml anti-mouse IgG Fc in PBS at 4° C. overnight. After 3 washes with PBS/0.05% Tween®20, the plates were blocked with 5% milk in PBS for 1 hour at room temperature. After another 3 washes with PBS/0.05% Tween®20, 100 μl cMet antibody was added to each well followed by an incubation of 1 hour at room temperature. Binding biotin-labeled cMet was detected by Streptavidin-horseradish peroxidase (KPL, Gaithersburg, Md.) and tetramethylbenzidine (Thermo Scientific, Rockford, Ill.). Final absorbances were acquired at 450 nm after stopping the reactions with 2 mol/L H₂SO₄. […] The terms EC₅₀ and IC₅₀ may be used interchangeably in this Example to reflect the concentration of the antibody which induces a response halfway between the baseline and the maximum after a specified exposure time.
Consider B2, for which the half-maximal effective concentration (EC50) came out at 0.35 nM.

A further assay addresses T1, biotin-labeled cMet. Put plainly: c-Met binding ELISA by the method of Example 1.3.
Procedure: as §1
In turn, B18 yielded an EC50 of 0.08 nM.
Still for that read-out and setting: the same measure for B20: 0.27 nM; for B21: 0.24 nM.

A further assay has as its target T3, rhcMetECD (cMet extracellular domain). Put plainly: SPR (Biacore 3000), binding protein captured on anti-human IgG Fc, rhcMetECD injected, 1:1 Langmuir fit, 25 C.
Procedure: The kinetics of MBody binding to rhcMetECD (extracellular domain) was determined by surface plasmon resonance-based measurements with a Biacore 3000 instrument (Biacore AB, Uppsala, Sweden) using HBS-EP (10 mM HEPES, pH 7.4, 150 mM NaCl, 3 mM EDTA, and 0.005% surfactant P20) at 25° C. […] Approximately, 5000 RU of goat anti-human IgG Fcγ fragment specific polyclonal antibody (Pierce Biotechnology Inc, Rockford, Ill.) diluted in 10 mM sodium acetate (pH 4.5) was directly immobilized across a CM5 research grade biosensor chip using a standard amine coupling kit according to manufacturer's instructions and procedures at 25 mg/ml. Unreacted moieties on the biosensor surface were blocked with ethanolamine. Modified carboxymethyl dextran surface in flowcell 2 and 4 was used as a reaction surface. Unmodified carboxymethyl dextran without goat anti-human IgG in flow cell 1 and 3 was used as the reference surface. For kinetic analysis, rate equations derived from the 1:1 Langmuir binding model were fitted simultaneously to association and dissociation phases of all ten injections (using global fit analysis) using the Bioevaluation 4.0.1 software. Purified MBody samples were diluted in HEPES-buffered saline for capture across goat anti-human IgG Fc specific reaction surfaces and injected over reaction matrices at a flow rate of 5 ml/min. […] The equilibrium dissociation constant (M) of the reaction between MBody and rhcMetECD was then calculated from the kinetic rate constants by the following formula: KD=koff/kon. Aliquots of rhcMetECD samples were also simultaneously injected over a blank reference and reaction CM surface to record and subtract any nonspecific binding background to eliminate the majority of the refractive index change and injection noise. Surfaces were regenerated with two subsequent 25 ml injections of 10 mM Glycine (pH 1.5) at a flow rate of 5 ml/min.
In general, Kd refers to the constant that tells how readily two partners part at equilibrium. As a reminder, the koff is the rate constant with which the complex falls apart. Read a high koff as fast dissociation. The term kon denotes the second-order rate constant of association. Higher therefore signals faster complex formation. B2 showed an equilibrium dissociation constant (Kd) of 2.67 nM, a koff of 0.000214 s⁻¹ and a kon of 80300 M⁻¹ s⁻¹.
For B6, the Kd was found to be 2.08 nM, the off-rate constant (koff) was determined as 0.000195 s⁻¹ and the on-rate constant (kon) was determined as 93600 M⁻¹ s⁻¹.
